From patent US20250075002A1 come the findings set out here.

Assay [1] addresses MUC1 as expressed on normal activated human T cells (human) (UniProt P15941). Kind of assay: FACS, PHA-L-activated human PBMC, live αβTCR+ gate, Donor 190980805C; antibody 10 µg/mL by paragraph 182.
For assay [2] the target is unchanged. Description: FACS, PHA-L-activated human PBMC, live αβTCR+ gate, Donor 191180405C; antibody 10 µg/mL by paragraph 182.
Assay [3] addresses Cyno MUC1 (full length), on cells (cyno). Kind of assay: flow cytometry on HEK293/cyno MUC1 cells.

Cyno MUC1 (full length), on cells (cyno), sequence (chain, as listed by the source limits assumed, form in doubt): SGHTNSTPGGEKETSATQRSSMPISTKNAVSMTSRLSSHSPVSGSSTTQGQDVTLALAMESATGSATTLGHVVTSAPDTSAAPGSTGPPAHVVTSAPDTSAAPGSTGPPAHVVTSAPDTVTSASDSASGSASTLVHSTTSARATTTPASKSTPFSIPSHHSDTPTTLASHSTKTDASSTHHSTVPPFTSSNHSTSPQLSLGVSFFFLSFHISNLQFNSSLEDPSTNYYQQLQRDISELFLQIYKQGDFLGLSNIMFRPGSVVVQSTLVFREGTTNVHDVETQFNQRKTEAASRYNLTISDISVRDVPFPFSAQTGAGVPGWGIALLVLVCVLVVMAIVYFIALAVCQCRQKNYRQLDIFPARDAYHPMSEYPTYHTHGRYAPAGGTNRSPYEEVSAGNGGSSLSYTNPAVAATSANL
MUC1 as expressed on normal activated human T cells (human), sequence (P15941 24-1255): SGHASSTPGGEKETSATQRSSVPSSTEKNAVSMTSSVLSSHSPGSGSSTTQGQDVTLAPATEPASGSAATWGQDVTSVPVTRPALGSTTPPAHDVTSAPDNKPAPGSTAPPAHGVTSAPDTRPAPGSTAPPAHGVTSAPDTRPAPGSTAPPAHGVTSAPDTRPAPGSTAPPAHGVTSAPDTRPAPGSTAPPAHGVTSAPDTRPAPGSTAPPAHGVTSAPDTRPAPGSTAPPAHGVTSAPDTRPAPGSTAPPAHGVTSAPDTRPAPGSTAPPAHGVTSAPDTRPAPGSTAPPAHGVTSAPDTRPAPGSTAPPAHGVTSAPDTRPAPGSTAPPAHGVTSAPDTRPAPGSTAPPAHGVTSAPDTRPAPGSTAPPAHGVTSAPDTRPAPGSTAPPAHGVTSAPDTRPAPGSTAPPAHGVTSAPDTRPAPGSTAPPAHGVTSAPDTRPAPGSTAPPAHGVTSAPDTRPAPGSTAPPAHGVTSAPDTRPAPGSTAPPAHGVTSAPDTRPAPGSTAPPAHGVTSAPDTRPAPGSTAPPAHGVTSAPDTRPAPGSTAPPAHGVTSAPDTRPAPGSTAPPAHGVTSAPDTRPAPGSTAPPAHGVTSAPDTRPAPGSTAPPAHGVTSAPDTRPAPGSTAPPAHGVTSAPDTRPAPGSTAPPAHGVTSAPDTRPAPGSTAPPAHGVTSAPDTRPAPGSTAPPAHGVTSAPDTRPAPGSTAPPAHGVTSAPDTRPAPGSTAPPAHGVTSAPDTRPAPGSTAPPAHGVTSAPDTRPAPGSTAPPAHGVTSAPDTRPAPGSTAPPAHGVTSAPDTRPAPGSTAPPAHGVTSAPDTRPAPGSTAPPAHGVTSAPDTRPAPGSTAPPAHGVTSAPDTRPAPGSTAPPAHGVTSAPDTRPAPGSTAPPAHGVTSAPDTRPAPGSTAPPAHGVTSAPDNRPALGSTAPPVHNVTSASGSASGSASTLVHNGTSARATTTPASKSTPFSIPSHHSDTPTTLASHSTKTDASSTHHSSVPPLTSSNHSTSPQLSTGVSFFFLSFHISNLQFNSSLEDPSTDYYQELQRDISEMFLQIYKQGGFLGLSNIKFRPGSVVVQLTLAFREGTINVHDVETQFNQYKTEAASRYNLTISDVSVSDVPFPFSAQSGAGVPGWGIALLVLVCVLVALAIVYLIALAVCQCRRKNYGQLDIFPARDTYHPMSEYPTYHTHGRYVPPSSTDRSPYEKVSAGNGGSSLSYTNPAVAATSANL

B1: huBG138P-Hz4 (antibody, from another filing, V domains shown)
VH: QVQLVQSGAEVKKPGASVKVSCKASGYTFTTYTMHWVRQAPGQGLEWMGYINPGSDYTHYNQKFKDRVTITADKSASTAYMELSSLRSEDTAVYYCARQGNYAAYYFDYWGQGTLVTVSS
VL: DIQMTQSPSSLSASVGDRVTITCRASGNIHNFLVWYQQKPGKSPKLLIYNAKTLTSGVPSRFSGSGSGTQYTLTISSLQPEDVATYYCQNFWNVPFTFGQGTKLEIK
As to B1, the percent of αβTCR+ cells in the MUC1-positive gate (dashed box) worked out at 2.4% in assay [1] and 2.3% in assay [2].

B2: chBG138P (antibody, V domains shown)
VH: QVQLLQSGAELARPGASVKMSCKASGYTFTTYTMHWIKQRPGQGLEWIGYINPGSDYTHYNQKFKDKATLTADKSSSTAYMHLYSLTSEDSAVYYCARQGNYAAYYFDYWGQGTTLTVSS
VL: DIQMTQSPASLSASVGETVTITCRASGNIHNFLVWYQQKQGKSPQLLVYNAKTLTDGVPSRFSGSGSGTQYSLKIKSLQPEDFGTYYCQNFWNVPFTFGSGTKLEIK
The molecule B2 gave an EC50 in assay [3] of 7.55 nM.

B3: chBG346P (antibody, V domains shown)
VH: EVQLQQSGAELVKPGASVKISCKASGYTFTNYWMNWVRQRPGQGLEWIGEIDPSDSYTNNNQKFKDKATLTVDKSSSTAYMQLSSLTSEDSAVYYCARGRRTGFAYWGQGTLVTVSS
VL: DIQMTQSPASLSVSVGETVTITCRASENIYSNLAWYQKKQGKSPQLLVYAATNLADGVPSRFSGSGSGTQYSLKINSLQSEDFGNYYCQHFWGTPYTFGGGTKLEIK
Consider B3, for which, in assay [3], the EC50 was 41.8 nM.

B4: chBG219P (antibody, V domains shown)
VH: EVQLVESGGGLVKPGGSLKLSCAASGFTFNDYIMSWVRQTPEKRLEWVATVSSGGDNTYYPDSVKGRFTISRDNAKNNLYLQMSSLRSEDTALYYCTRYGGLGAMDYWGQGTSVTVSS
VL: DIVMTQSPASLSASVGETVTITCRASGNIHNYLTWYQQKQGKSPQLLVYNAKTLADGVPSRFSGSGSGPQYSLKINSLQPEDFGSYYCQHFWSVPYTFGGGTRLEIK
Consider B4, for which the 50% effective concentration (EC50) in assay [3] worked out at 12.7 nM.
